Reference: patent US20100266532A1, “METHODS FOR INHIBITING SCARRING” (Renovo Limited, priority 2007, published 2010)

What was measured:
[1] = test system: 1 cm incisional rat wounds; assay: Reduction in scarring of rat wounds treated with IL-10 in two incidences of treatment; type: in vivo; conditions: for percentage reduction in scarring compared to placebo control: approximately 24 hours apart
Experimental: FIG. 13 is a graph showing the percentage reduction in scarring, as compared to placebo control, achieved in scars formed on healing of 1 cm incisional rat wounds treated with IL-10 administered by means of intradermal injection in two incidences of treatment, the first prior to wounding and the second approximately 24 hours later. Wounds dosed with IL-10 received either two injections of 500 ng/100 μl IL-10, two injections of 1000 ng/100 μl IL-10, or an escalating dose regime in accordance with the present invention, in which the first injection comprised 500 ng/100 μl IL-10 and the second injection comprised 1000 ng/100 μl IL-10.
Arrow heads mark the ends of the scars 70 days post wounding.

[2] = test system: inflammatory cells in 1 cm incisional rat wounds; assay: Percentage of inflammatory cells (CD68 staining) in rat wounds; type: in vivo; conditions: 3 days post treatment
Text: Wounds were excised from the experimental rats at 3 days post treatment, fixed in 10% (v/v) buffered formal saline, processed for histology and stained with CD68 to assess inflammatory cell numbers.

B1: IL-10: interleukin-10, anti-scarring agent; amino acid sequence of human IL-10 in Sequence ID No. 3 (protein, listed as Homo sapiens)
chain: MSPGQGTQSENSCTHFPGNLPNMLRDLRDAFSRVKTFFQMKDQLDNLLLKESLLEDFKGYLGCQALSEMIQFYLEEVMPQAENQDPDIKAHVNSLGENLKTLRLRLRRCHRFLPCENKSKAVEQVKNAFNKLQEKGIYKAMSEFDIFINYIEAYMTMKIRN
inhibition of scarring, macroscopic images ([1]; escalating 500 then 1000 ng/100 μl versus 500 ng/100 μl twice, 70 days post wounding): greater inhibition of scarring | reduction in scarring versus constant doses ([1]; escalating: 500 ng/100 μl then 1000 ng/100 μl approximately 24 hours later): much larger magnitude of effect | percentage reduction in scarring compared to placebo control ([1]; two injections of 500 ng/100 μl): 27.5% | percentage reduction in scarring compared to placebo control ([1]; two injections of 1000 ng/100 μl): 22.8% | infiltration of inflammatory cells into the wound compared to controls [2]: reduces infiltration of inflammatory cells | inflammatory cell numbers versus same dose given twice ([2]; escalating: 500 ng/100 μl then 1000 ng/100 μl): surprisingly marked decrease in inflammatory cell numbers
